Kd data for two substances are collected here from patent publication US20260167710A1.

Assay [1] has as its target cynomolgus recombinant neonatal receptor (FcRn) (cynomolgus monkey) (UniProt Q8SPV9). Kind of assay: SPR (ProteOn XPR36), antibody captured by protein L, FcRn as analyte, equilibrium fit, pH 6.0, 25 C.
Assay [2] has as its target human recombinant neonatal receptor (FcRn) (human) (UniProt P55899). Described as above.
The target in assay [3] is cynomolgus recombinant neonatal receptor (FcRn) (cynomolgus monkey) (UniProt Q8SPV9). Briefly: SPR (ProteOn XPR36), antibody captured by protein L, FcRn as analyte, equilibrium fit, pH 7.4, 25 C.
For assay [4], the target named is human recombinant neonatal receptor (FcRn) (human) (UniProt P55899). Described as above.
Chain of human recombinant neonatal receptor (FcRn) (human) (P55899 24-297 limits assumed, chain 1 of 2): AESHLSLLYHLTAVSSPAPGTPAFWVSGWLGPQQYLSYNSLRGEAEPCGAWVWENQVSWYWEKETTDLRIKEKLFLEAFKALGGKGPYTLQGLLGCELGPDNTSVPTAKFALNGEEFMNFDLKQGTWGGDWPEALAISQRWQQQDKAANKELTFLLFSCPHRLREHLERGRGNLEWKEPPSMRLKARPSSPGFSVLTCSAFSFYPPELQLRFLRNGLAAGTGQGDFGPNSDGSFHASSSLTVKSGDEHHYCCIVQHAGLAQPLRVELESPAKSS
Chain of human recombinant neonatal receptor (FcRn) (human) (P61769 21-119 limits assumed, chain 2 of 2, further chain): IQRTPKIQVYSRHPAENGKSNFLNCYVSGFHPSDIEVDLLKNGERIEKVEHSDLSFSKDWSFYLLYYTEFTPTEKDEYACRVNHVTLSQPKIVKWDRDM
For assay [5], the target named is cFcgRIIIa (cynomolgus monkey). Kind of assay: SPR (ProteOn XPR36), anti-poly-histidine IgG surface, antibody as analyte, equilibrium fit, 25 C.
Chain of cFcgRIIIa (cynomolgus monkey) (Q8SPW2 17-208): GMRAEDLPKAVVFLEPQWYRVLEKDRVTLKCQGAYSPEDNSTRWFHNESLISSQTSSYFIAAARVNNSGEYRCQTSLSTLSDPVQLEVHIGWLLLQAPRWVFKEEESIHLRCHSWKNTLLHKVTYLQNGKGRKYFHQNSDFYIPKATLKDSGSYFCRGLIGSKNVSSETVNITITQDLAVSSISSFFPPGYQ
Assay [6] has as its target cFcgRIIa (cynomolgus monkey). The assay is described as above.
Assay [7] deals with cFcgRIIb (cynomolgus monkey). Described as above.
Another assay has as its target hFcgRI (human) (UniProt P12314). Described as above.
In the next assay the target is hFcgRIIIa (F158) (human) (UniProt P08637). The assay is described as above.
Chain of hFcgRIIIa (F158) (human) (P08637 17-208): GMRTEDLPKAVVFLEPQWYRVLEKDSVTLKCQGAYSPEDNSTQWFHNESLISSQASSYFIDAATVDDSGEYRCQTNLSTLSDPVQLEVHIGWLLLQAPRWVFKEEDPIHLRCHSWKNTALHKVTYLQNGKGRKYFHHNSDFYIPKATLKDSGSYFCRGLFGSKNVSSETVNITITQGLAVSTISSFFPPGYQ
For another assay, the target named is hFcgRIIIa (V158) (human) (UniProt P08637). The description is as above.
Chain of hFcgRIIIa (V158) (human) (P08637 17-208 F176V): as the sequence (P08637 17-208) above, with F160V counted along it
The next assay concerns the target hFcgRIIa (H131) (human) (UniProt P12318). Described as above.
The next assay concerns the target hFcgRIIa (R131) (human) (UniProt P12318). The description is as above.
Assay [8] deals with human complement component C1q (human) (UniProt P02745). Briefly: SPR (ProteOn XPR36), antibody immobilised by amine coupling, C1q as analyte, equilibrium fit, 25 C.
Chain of human complement component C1q (human) (P02745 23-245 limits assumed, chain 1 of 3): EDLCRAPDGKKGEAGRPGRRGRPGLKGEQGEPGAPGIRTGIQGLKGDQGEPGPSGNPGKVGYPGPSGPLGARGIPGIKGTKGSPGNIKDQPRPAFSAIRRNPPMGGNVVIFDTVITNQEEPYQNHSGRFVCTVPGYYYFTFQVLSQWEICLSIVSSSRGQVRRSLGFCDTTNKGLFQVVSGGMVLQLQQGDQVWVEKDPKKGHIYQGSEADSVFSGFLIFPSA
Chain of human complement component C1q (human) (P02746 28-253 limits assumed, chain 2 of 3, further chain): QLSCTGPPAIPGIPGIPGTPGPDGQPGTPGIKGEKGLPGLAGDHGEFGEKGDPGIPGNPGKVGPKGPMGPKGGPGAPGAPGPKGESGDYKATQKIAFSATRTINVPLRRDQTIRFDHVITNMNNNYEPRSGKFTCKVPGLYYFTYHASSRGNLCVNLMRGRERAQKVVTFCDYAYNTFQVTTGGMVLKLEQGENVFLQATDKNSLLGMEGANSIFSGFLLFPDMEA
Chain of human complement component C1q (human) (P02747 29-245 limits assumed, chain 3 of 3, further chain): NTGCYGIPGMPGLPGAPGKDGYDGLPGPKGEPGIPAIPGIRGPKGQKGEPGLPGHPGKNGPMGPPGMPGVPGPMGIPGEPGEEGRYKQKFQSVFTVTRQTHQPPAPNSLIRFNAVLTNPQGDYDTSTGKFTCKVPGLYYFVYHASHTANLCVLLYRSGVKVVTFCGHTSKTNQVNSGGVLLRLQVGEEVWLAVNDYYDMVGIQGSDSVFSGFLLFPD

Chain of hFcgRIIa (R131) (human) (P12318 34-217 H167R): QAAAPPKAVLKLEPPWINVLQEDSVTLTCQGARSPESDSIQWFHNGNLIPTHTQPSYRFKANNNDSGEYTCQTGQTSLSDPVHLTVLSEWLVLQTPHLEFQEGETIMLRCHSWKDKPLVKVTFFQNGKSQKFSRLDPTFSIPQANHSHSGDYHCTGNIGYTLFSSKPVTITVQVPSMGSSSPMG
Chain of hFcgRIIa (H131) (human) (P12318 34-217): as the sequence (P12318 34-217 H167R) above, with R134H counted along it
Chain of hFcgRI (human) (P12314 16-292): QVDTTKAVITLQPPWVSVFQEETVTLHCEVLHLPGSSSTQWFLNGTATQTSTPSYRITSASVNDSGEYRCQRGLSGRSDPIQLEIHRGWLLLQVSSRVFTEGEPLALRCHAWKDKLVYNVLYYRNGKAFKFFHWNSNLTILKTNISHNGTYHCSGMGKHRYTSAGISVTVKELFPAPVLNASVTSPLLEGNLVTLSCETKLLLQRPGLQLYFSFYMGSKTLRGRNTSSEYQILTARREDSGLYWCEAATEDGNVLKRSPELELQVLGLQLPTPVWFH

As to Human IgG1 YTE control (antibody), the Kd in assay [1] was found to be 39.3 nM; in [2], 30.4 nM; in assay [3] it was 2760 nM; in assay [4], 4.33 µM.

For the substance “Anti-RSV hIgG1 wildtype control (antibody)”, the Kd in [5] amounted to 141 nM; in assay [6] it was 2210 nM; in assay [7] it was 1450 nM; in the assay with hFcgRI (human) it was 28.3 nM; with hFcgRIIIa (F158) (human) it was 735 nM; with hFcgRIIIa (V158) (human), 232 nM. In addition, the Kd in the assay with hFcgRIIa (H131) (human) was 884 nM; with hFcgRIIa (R131) (human), 528 nM; in assay [8] it was 680 nM; in [1], 146 nM; in assay [2], 129 nM.

By Kd is commonly meant a measure of binding affinity in units of concentration.
